From US20240182561A1 (Regeneron, published 2024) come the findings set out here.

Experiment [1] addresses T1, human CACNG1 expressed on cells (human, UniProt Q06432 1-222). Nature of the experiment: cell-based or functional assay.
The target in experiment [2] is T2, mouse CACNG1 expressed on cells (mouse, UniProt O70578 1-223).
T2 sequence (looked up): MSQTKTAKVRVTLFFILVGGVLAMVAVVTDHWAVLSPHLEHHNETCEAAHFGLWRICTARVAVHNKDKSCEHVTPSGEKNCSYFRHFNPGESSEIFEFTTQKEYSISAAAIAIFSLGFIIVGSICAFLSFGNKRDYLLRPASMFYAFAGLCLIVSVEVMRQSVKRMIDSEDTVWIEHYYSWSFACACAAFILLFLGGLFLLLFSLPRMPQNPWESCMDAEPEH
Nature of the experiment: cell-based or functional assay.

Experiment [3] deals with T1, human CACNG1 expressed on cells. Nature of the experiment: imaging cell binding, HEK293/hCACNG1. Here is the method:
(§1) HuSKM were seeded in collagen-coated 96-well plates (Greiner Bio-One #655956) at 8,500 cells/well and grown for 24 hours. The growth media was changed to MyoTonic Differentiation Media (Cook Myosite Cat #MD-5555) and replaced every 2 days. Myotubes were assayed after 6 days of differentiation. C2C12 mouse myoblasts were maintained in DMEM with 10% FBS and 1% penicillin-streptomycin supplement and grown in a 37° C. incubator with 5% CO₂. C2C12 cells were seeded in collagen-coated 96-well plates (Greiner Bio-One #655956) at 10,000 cells/well for the cell binding assay and 5,000 cells/well for the cell killing assay. After 24 hours, growth media was replaced with differentiation media (DMEM with 2% horse serum) and placed in a 37° C. incubator with 7.5% CO₂. C2C12 myotubes were assayed after 3 days of differentiation. HEK293/hCACNG1, HEK293/mCACNG1, and HEK293 cells were seeded at 10,000 cells (cell binding assay) or 2,000 (cell killing assay) per well in 96-well black collagen coated plates (Greiner Bio-One, cat #655956) in complete growth media and grown overnight at 37° C. in 5% CO₂.
(§2) Relative binding of anti-CACNG1 antibodies was assessed across the entire panel of cell lines via imaging analysis. […] After one wash with antibody dilution buffer, samples were fixed in CytoFix (BD Biosciences, Cat #554655) diluted 1:1 in PBS and supplemented with a 1:2000 dilution of Hoechst 33342 (Thermo, Cat #H1399) for 20 minutes on ice. Images were acquired with a 10× objective on the Opera Phenix (Perkin Elmer) and relative fluorescence units (RFU) was determined using Harmony software (Perkin Elmer).

Experiment [4] concerns the target T2, mouse CACNG1 expressed on cells. Nature of the experiment: imaging cell binding, HEK293/mCACNG1. Here is the method:
as §1, §2

In experiment [5] the target is T1, human CACNG1 expressed on cells. Nature of the experiment: imaging cell binding, HuSKM myotubes. Here is the method:
as §1, §2

Experiment [6] deals with T3, nanodisc embedded human CACNG1 expressed with a C-terminal PADRE-Flag-His tag (human, UniProt Q06432 1-222).
T3 construct: Captured on an anti-His Biacore surface; also called human CACNG1 nanodisc; CACNG1 nanodisc; not shown: C-terminal tag
Nature of the experiment: SPR, anti-His-captured nanodisc, 25 C. Here is the method: Equilibrium dissociation constants (KD values) for nanodisc embedded human CACNG1 expressed with a C-terminal […] tag (human CACNG1 nanodisc; concentration 0.82 mg/ml) binding to purified anti-CACNG1 antibodies were determined using a real-time surface plasmon resonance biosensor technology with a Biacore T200 instrument. The CM5 Biacore sensor surface was derivatized by amine coupling with a monoclonal mouse anti-His antibody (Cytiva; Marlborough, MA). All Biacore binding studies were performed in a buffer composed of 0.01M HEPES, 0.15M NaCl, 1 mM CaCl₂, 0.5 mM MgCl₂, pH 7.4 (HBS-N++ running buffer). Different concentrations of anti-CACNG1 antibodies (ranging from 300 nM to 12 nM in 5-fold serial dilutions) prepared in HBS-N++ running buffer were injected over the captured human CACNG1 nanodisc at a flow rate of 30 μL/minute. Antibody association was monitored for 2 minutes while dissociation was monitored in HBS-N++ running buffer for 5 minutes. At the end of each cycle, the human CACNG1 nanodisc capture surface was regenerated using three 10 second injections of 10 mM Gly pH1.5. All binding kinetics experiments were performed at 25° C.
The specific SPR-Biacore sensorgrams were obtained by a double referencing procedure. The double referencing was performed by first subtracting the signal of each injection over a reference surface (anti-His) from the signal over the experimental surface (anti-His captured human CACNG1 nanodisc) thereby removing contributions from refractive index changes. In addition, running buffer injections were performed to allow subtraction of the signal changes resulting from the dissociation of captured antibodies from the coupled anti-His surface. Kinetic association (kₐ) and dissociation ([…]) rate constants were determined by fitting the real-time sensorgrams to a 1:1 binding model using Scrubber v2.0c curve fitting software. Binding dissociation equilibrium constants (KD) and dissociative half-lives (t %) were calculated from the kinetic rate constants as: […]

Experiment [7] deals with T2, mouse CACNG1 expressed on cells. Nature of the experiment: imaging cell binding, C2C12 mouse myotubes. Here is the method:
as §1, §2

Some results are limits rather than exact numbers.

T1 sequence (Q06432 whole entry): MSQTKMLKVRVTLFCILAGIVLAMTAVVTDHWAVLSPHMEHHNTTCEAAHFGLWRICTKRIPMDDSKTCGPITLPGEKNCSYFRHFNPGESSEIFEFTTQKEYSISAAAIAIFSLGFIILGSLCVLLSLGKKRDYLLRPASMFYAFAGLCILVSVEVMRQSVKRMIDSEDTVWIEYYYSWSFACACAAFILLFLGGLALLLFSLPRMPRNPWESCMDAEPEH
T3 sequence (Q06432 whole entry): as above

B1: H2aM31941N (antibody, mouse IgG1, kappa, V domains shown)
VH: QVQLVQSGAEVKKPGASVKVSCKASGYAFTTYGITWVRQAPGQGLEWMGWISAYNGNTNYAEKVQGRFTMTTDTSTNTAYMELRSLRSDDTAVYFCARKGHYGSGTYYNPFGFDFWGQGTMVTVSS
VL: EIMLMQSPGTLSLSPGERATLSCRASQSVSSSYLAWYQQKPGQAPRLLIYGASSRATDIPDRFSGSGSGTDFTLTISRLEPEDFAVYFCQQYYGSPWTFGQGTKVEIKR
notes: Both names are treated as one molecule; also called H1M31941N; lot H1M31941N-L1
With B1, in experiment [1], the “% KILL, indirect cell killing, HEK293/hCACNG1” value (“% KILL … HEK293/hCACNG1” below) was 95.4%; the “% KILL, indirect cell killing, HuSKM” value amounted to 91.2%; the “EC50/IC50, indirect cell killing, HEK293/hCACNG1” value (shortened to “EC50/IC50 … HEK293/hCACNG1”) stood at 0.00217 nM; the “EC50/IC50, indirect cell killing, HuSKM” value turned out to be 0.112 nM. Moreover, in experiment [2], the “% KILL, indirect cell killing, C2C12” value was 0.4%; the “% KILL, indirect cell killing, HEK293/mCACNG1” value (“% KILL … HEK293/mCACNG1” below) stood at 4.9%; the “EC50/IC50, indirect cell killing, C2C12” value is over 10 nM; the “EC50/IC50, indirect cell killing, HEK293/mCACNG1” value (shortened to “EC50/IC50 … HEK293/mCACNG1”) was over 1 nM. In experiment [3], this molecule gave an EC50 of 0.21 nM and a S/N of 51.2 fold. In experiment [4], this molecule displayed a S/N of 1.4 fold. In experiment [5], this molecule came in with an EC50 of 0.13 nM and a S/N of 559 fold. Also, in experiment [6], the Kd came out at 1.19 nM, the dissociation rate constant (koff) is 0.000406 s⁻¹, the kon was determined as 342000 M⁻¹ s⁻¹ and the “mAb bound at 300 nM” value came out at 19 RU. The t1/2 in experiment [6] came to 28.4 min. Besides, in experiment [7], the S/N was 1.2 fold and the binding result is given as “no binding (tested: 100 nM highest tested)”.

B2: H4H31265P2 (antibody, human IgG4 S228P, kappa, V domains shown)
VH: QVQLVESGGGVVQPGRSLRLSCTASGFTFRSYGMHWVRQAPGKGLEWVSVIWIDGNNIYYADSVKGRFTISRDNSKNTLYLQMDSLRAEDTAVYYCARRLAITSAAPFDYWGQGTLVTVSS
VL: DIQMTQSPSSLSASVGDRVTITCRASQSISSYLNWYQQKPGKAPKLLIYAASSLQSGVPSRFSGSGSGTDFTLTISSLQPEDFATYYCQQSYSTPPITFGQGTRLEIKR
notes: also called H4H31265P2/REGN5972 (lot H4H31265P2-L1)
For the molecule B2, in experiment [1], the “% KILL … HEK293/hCACNG1” value was found to be 94.6%; the “% KILL, indirect cell killing, HuSKM” value was determined as 95.6%; the “EC50/IC50 … HEK293/hCACNG1” value was found to be 0.00245 nM; the “EC50/IC50, indirect cell killing, HuSKM” value is 0.56 nM. Besides, in experiment [2], the “% KILL, indirect cell killing, C2C12” value is 3.4%; the “% KILL … HEK293/mCACNG1” value was found to be 22.9%; the “EC50/IC50, indirect cell killing, C2C12” value is over 10 nM; the “EC50/IC50 … HEK293/mCACNG1” value was over 1 nM. In experiment [3], this molecule yielded a 50% effective concentration (EC50) of 11 nM and a S/N of 247 fold. The molecule also returned a S/N in experiment [4] of 1.2 fold. In experiment [5], this molecule showed an EC50 of 3.3 nM and a S/N of 250 fold. In experiment [6], the Kd came to 81 nM, the koff is 0.0084 s⁻¹, the kon was determined as 104000 M⁻¹ s⁻¹ and the “mAb bound at 300 nM” value worked out at 14 RU. Besides, the t1/2 in experiment [6] was found to be 1.4 min. For the same molecule, in experiment [7], the S/N stood at 0.8 fold and the binding result is on record as “no binding (tested: 100 nM highest tested)”.

B3: REGN10717 (antibody, human IgG4 S228P, kappa)
heavy: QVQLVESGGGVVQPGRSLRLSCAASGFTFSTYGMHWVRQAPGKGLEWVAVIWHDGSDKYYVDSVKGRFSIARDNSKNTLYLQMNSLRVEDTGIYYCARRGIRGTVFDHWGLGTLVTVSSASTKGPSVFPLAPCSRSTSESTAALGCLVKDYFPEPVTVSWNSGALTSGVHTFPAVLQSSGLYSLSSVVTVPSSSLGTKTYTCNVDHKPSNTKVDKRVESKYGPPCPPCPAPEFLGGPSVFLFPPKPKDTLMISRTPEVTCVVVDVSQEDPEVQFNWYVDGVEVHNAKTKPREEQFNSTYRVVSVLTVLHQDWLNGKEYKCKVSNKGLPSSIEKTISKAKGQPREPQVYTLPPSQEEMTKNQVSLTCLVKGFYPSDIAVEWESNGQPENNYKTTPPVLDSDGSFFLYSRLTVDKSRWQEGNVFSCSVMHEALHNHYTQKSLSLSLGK
light: DIQMTQSPSTLSASVGDRVTLTCRASQSISNKLAWYQQKPGKAPNLLIYKASNLESGVPSRFSGSGSGTEFTLTISSLQPDDFATYYCQQYNSYSWTFGQGTKVEIKRTVAAPSVFIFPPSDEQLKSGTASVVCLLNNFYPREAKVQWKVDNALQSGNSQESVTEQDSKDSTYSLSSTLTLSKADYEKHKVYACEVTHQGLSSPVTKSFNRGEC
notes: hIgG4
With B3, in experiment [1], the “% KILL … HEK293/hCACNG1” value worked out at 97%; the “% KILL, indirect cell killing, HuSKM” value is 99.6%; the “EC50/IC50 … HEK293/hCACNG1” value is 0.000806 nM; the “EC50/IC50, indirect cell killing, HuSKM” value was 0.0364 nM. For the same molecule, in experiment [2], the “% KILL, indirect cell killing, C2C12” value stood at 99.8%; the “% KILL … HEK293/mCACNG1” value was determined as 96%; the “EC50/IC50, indirect cell killing, C2C12” value is 0.00356 nM; the “EC50/IC50 … HEK293/mCACNG1” value worked out at 0.00118 nM. Further, in experiment [3], the 50% effective concentration (EC50) is over 100 nM and the S/N came out at 77.4 fold. In experiment [4], the EC50 was over 100 nM and the S/N was found to be 23.6 fold. In experiment [5], this molecule returned a half-maximal effective concentration (EC50) of 69 nM and a S/N of 292 fold. Also, in experiment [6], binding was characterised by a dissociation constant (Kd) of 104 nM, the koff stood at 0.0304 s⁻¹, the kon worked out at 294000 M⁻¹ s⁻¹ and the “mAb bound at 300 nM” value is 7 RU. Moreover, the t1/2 in experiment [6] was 0.4 min. Also, in experiment [7], the EC50 is over 100 nM and the S/N was found to be 4.9 fold.
